Experimental data from the supplement of paper PMC10724198.
± gives the standard deviation of the averaged measurements.

The sequences below were run on Saccharomyces cerevisiae (assay: protein stability index of tFT-peptide fusion (C-terminal peptide) (PSI (0-1 scale)); higher = more stable (slower turnover)). Conditions: genetic background: wild type; temperature: 37 C.
Protocol: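 MPS profiling in S. cerevisiae of the tFT-X12 degron library: putative degron peptides plus stable controls, 12 aa, fused to the C-terminus of a sfGFP-mCherry timer. Cells are FACS-sorted into 8 mCherry/sfGFP bins and deep-sequenced. PSI runs from 0 (unstable) to 1 (stable). Backgrounds are wild type, das1Δ and doa10Δ at 30 °C, and wild type, das1Δ, cdc34-1 and cdc53-1 at 37 °C; 2-3 technical replicates each.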
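Further: PSI is a weighted mean of sequencing reads over stability bins, variants kept only with over 10 reads, mCherry proximal and sfGFP distal, peptide attached via GGGS linker.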

Row | Sequence | protein stability index
1 | CRLATILRITAL | 0.4445 ± 0.00077
2 | CSLFFFRLIFTL | 0.0702 ± 0.01
3 | CSLFYVFYRRLL | 0.5212 ± 0.0043
4 | CSLRGLFLVVSV | 0.451 ± 0.01
5 | DFWCIIVIFLFR | 0.34 ± 0.0045
6 | EKKKKKRKNKIK | 0.661 ± 0.028
7 | FHSALIAIAAYV | 0.217 ± 0.0052
8 | LSLLILFVLLSF | 0.463 ± 0.039
9 | LVGYSVFVLFFS | 0.426 ± 0.037
10 | PLPSRLRRFVPV | 0.6801 ± 0.0039
11 | PPCSLLPPPPAP | 0.687 ± 0.024
12 | RGGVRGVRSGRG | 0.631 ± 0.045
13 | SLTHTPLGVTRT | 0.704 ± 0.0086
14 | TGGGGRVSLGVG | 0.413 ± 0.0088
15 | TLDWKFGWGGIG | 0.645 ± 0.018
16 | VLRFVYDLVSAL | 0.435 ± 0.015
17 | VQTVRLVFQVLA | 0.207 ± 0.018
18 | VRWALLGVVVEG | 0.428 ± 0.013

Each sequence was assayed on Saccharomyces cerevisiae in the same assay as above. Conditions: genetic background: wild type; temperature: 30 C.

Row | Sequence | protein stability index
19 | AAFLGVLCWCWG | 0.433 ± 0.011
20 | ACVRFPLVLVVF | 0.147 ± 0.014
21 | AFKRVFWALWWM | 0.36 ± 0.014
22 | AFLFLFSITCIV | 0.241 ± 0.013
23 | AFPVGFLVGLVV | 0.431 ± 0.0065
24 | AGCFFVVLCGFF | 0.431 ± 0.0071
25 | AIDLCIAVVGMV | 0.4439 ± 0.0022
26 | AITHVILLVTPL | 0.507 ± 0.04
27 | ALFVGVVLLVCW | 0.298 ± 0.013
28 | ALHGTVRNWQRQ | 0.39 ± 0.015
29 | ALLLLLRRFFLV | 0.154 ± 0.029
30 | ALMTFTLVFTYM | 0.251 ± 0.014
31 | ALPLRSNILSVF | 0.3795 ± 0.0028
32 | ALWFVLISILCL | 0.378 ± 0.007
33 | ARFCFRIFSFAS | 0.0816 ± 0.0097
34 | ASCFFLFVLRVF | 0.233 ± 0.041
35 | ATLWVWCFSSHV | 0.497 ± 0.078
36 | ATSGATILVLIA | 0.307 ± 0.0047
37 | CEVLVVVMCLWG | 0.285 ± 0.024
38 | CFFPFLCFVVGA | 0.445 ± 0.017
39 | CLFFFFFHLPIF | 0.472 ± 0.032
40 | CLFSVLFPLFFR | 0.214 ± 0.039
41 | CLGLFPSLLRLS | 0.325 ± 0.032
42 | CLLWVVWSLLWV | 0.353 ± 0.095
43 | CLVFGFLFFIVI | 0.404 ± 0.021

Row | Sequence | protein stability index
44 | CLWNFWVRFLLL | 0.175 ± 0.022
45 | CMLGVVRVLVWF | 0.186 ± 0.033
46 | CMLPWPILLCPF | 0.46 ± 0.0055
47 | CMPVYYTVVIRL | 0.296 ± 0.021
48 | CPALTFCLLLSS | 0.457 ± 0.0097
49 | CPFLTLLISLDV | 0.478 ± 0.011
50 | CPICDFLFLALF | 0.424 ± 0.054
51 | CRHCFVLLYFDY | 0.349 ± 0.00063
52 | CRLATILRITAL | 0.384 ± 0.018
53 | CSLFFFRLIFTL | 0.0826 ± 0.014
54 | CSLFYVFYRRLL | 0.38 ± 0.0078
55 | CSLRGLFLVVSV | 0.405 ± 0.0065
56 | YCTAGVCVKAGR | 0.765 ± 0.027
57 | YCVCACCASLLA | 0.538 ± 0.025
58 | YDELEKADKQEE | 0.6723 ± 0.0061
59 | YEEGRGEWIKKI | 0.632 ± 0.051
60 | YESISGLGHLSG | 0.6962 ± 0.005
61 | YEYPRVTFSPQT | 0.7878 ± 0.005
62 | YFESKWKYAGVR | 0.699 ± 0.0074
63 | YFFDYGVSRVLS | 0.584 ± 0.015
64 | YFSSGGITVSLC | 0.664 ± 0.066
65 | YFVSCACSSYFV | 0.601 ± 0.02
66 | YGAVRFTLIPLQ | 0.639 ± 0.024
67 | YGCSLFCPDCSI | 0.794 ± 0.15
68 | YGFLRSWCICDT | 0.729 ± 0.098

Row | Sequence | protein stability index
69 | YGGDMHGNNFSG | 0.701 ± 0.011
70 | YGGRGFKGYYGG | 0.776 ± 0.02
71 | YGIGNVNTGRGP | 0.703 ± 0.011
72 | YGNTQFLTQTWY | 0.705 ± 0.021
73 | YGSYVVNSLYLS | 0.616 ± 0.0097
74 | YGYMTNNCLLSI | 0.649 ± 0.041
75 | YIHGFRLFGCVD | 0.668 ± 0.031
76 | YKGKFTILESLK | 0.665 ± 0.027
77 | YKVKADRVRHRR | 0.692 ± 0.013
78 | YLALSAPKERTH | 0.703 ± 0.033
79 | YLFSTGSTLHSH | 0.818 ± 0.088
80 | YLPKLSTYRLLR | 0.654 ± 0.032
81 | YLPRPPPTTALL | 0.74 ± 0.087
82 | YLQESLVEMWIV | 0.65 ± 0.056
83 | YLSFYRLLDSST | 0.664 ± 0.007
84 | YLSPSTPLPVVL | 0.64 ± 0.1
85 | YLTCTLLSQPIY | 0.542 ± 0.027
86 | YLVGVRDSFALR | 0.715 ± 0.02
87 | YMGGGGASGAPA | 0.667 ± 0.047
88 | YNKKKKRYKKKF | 0.72 ± 0.0076
89 | YNMGILASQGCG | 0.665 ± 0.046
90 | YNSRKQKKREKK | 0.706 ± 0.027
91 | YPIFSPFSLPAL | 0.59 ± 0.0073
92 | YPLPPPRPPCLP | 0.664 ± 0.063
93 | YPYRKRTIGVRT | 0.595 ± 0.015

Row | Sequence | protein stability index
94 | YQRENYERKGYR | 0.681 ± 0.067
95 | YQVTEEKLIMTQ | 0.674 ± 0.036
96 | YREVGGVAERRR | 0.695 ± 0.044
97 | YRGSNWEGDTPS | 0.667 ± 0.054
98 | YRPPPLSPPSPP | 0.695 ± 0.013
99 | YRSVLGREEQLI | 0.7 ± 0.057
100 | YRYGVSWFDWRI | 0.784 ± 0.058
101 | YSEKFKDRFKED | 0.67 ± 0.015
102 | YSGRCGVKLFNG | 0.705 ± 0.073
103 | YSGSPPFPLSRL | 0.801 ± 0.027
104 | YSIAYGVLWRYR | 0.5687 ± 0.0051
105 | YSLIPLSSISQH | 0.685 ± 0.074
106 | YSNCPQPRVISD | 0.6 ± 0.063
107 | YSPSCPRTSPLL | 0.726 ± 0.046
108 | YSQSRPYFRIPG | 0.647 ± 0.029
109 | YSSGKPMEITIA | 0.678 ± 0.084
110 | YTHIRGVLFGVR | 0.704 ± 0.034
111 | YTSHPVLPEVNG | 0.695 ± 0.035
112 | YTSTPTLYTRLW | 0.689 ± 0.014
113 | YTWHKLFFAYAI | 0.528 ± 0.0059
114 | YVLSVKEGTNLP | 0.709 ± 0.023
115 | YVSYVFDYEVRH | 0.709 ± 0.051
116 | YVTSKLMNLVLY | 0.662 ± 0.066
117 | YVVWGGVQGSVL | 0.747 ± 0.046
118 | YWSFRKGGLALY | 0.651 ± 0.019
